Measured values published in publication PMC2680711 (Nature structural & molecular biology, 2008).

How the values were obtained:
[1] = target: T1, Rtt109 (recombinant, purified) (yeast, UniProt Q07794 1-436); assay: AUC
T1 sequence (looked up): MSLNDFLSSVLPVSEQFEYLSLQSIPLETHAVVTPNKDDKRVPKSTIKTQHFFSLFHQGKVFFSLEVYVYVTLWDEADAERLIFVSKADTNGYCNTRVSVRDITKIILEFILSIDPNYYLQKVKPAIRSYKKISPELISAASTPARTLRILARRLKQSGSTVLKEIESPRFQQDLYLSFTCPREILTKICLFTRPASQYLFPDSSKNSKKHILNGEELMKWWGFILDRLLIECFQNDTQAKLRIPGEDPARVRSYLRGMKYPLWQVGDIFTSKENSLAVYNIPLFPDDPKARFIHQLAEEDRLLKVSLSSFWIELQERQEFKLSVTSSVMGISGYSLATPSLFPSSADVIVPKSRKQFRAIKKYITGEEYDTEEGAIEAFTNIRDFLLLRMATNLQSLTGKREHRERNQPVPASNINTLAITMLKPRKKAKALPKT

AUC = target: the molecule itself; assay: AUC
[2] = target: recombinant yeast (H3-H4)2 tetramer (yeast, UniProt P61830 1-136; P02309 1-103); assay: other fluorescence titration

B1: Vps75_(1−223) (Vps75 lacking the C-terminal acidic domain) (domain or fragment, S. cerevisiae, UniProt P53853 1-223, looked up)
chain: MMSDQENENEHAKAFLGLAKCEEEVDAIEREVELYRLNKMKPVYEKRDAYIDEIAEFWKIVLSQHVSFANYIRASDFKYIDTIDKIKVEWLALESEMYDTRDFSITFHFHGIEGDFKEQQVTKVFQIKKGKDDQEDGILTSEPVPIEWPQSYDSINPDLIKDKRSPEGKKKYRQGMKTIFGWFRWTGLKPGKEFPHGDSLASLFSEEIYPFCVKYYAEAQRDL
[1]
  binding result: binds
AUC
  stoichiometry N: 2

B2: Alexa-546-labeled Vps75 (natural protein, S. cerevisiae)
chain: MMSDQENENEHAKAFLGLAKCEEEVDAIEREVELYRLNKMKPVYEKRDAYIDEIAEFWKIVLSQHVSFANYIRASDFKYIDTIDKIKVEWLALESEMYDTRDFSITFHFHGIEGDFKEQQVTKVFQIKKGKDDQEDGILTSEPVPIEWPQSYDSINPDLIKDKRSPEGKKKYRQGMKTIFGWFRWTGLKPGKEFPHGDSLASLFSEEIYPFCVKYYAEAQRDLEDEEGESGLSADGDSEDDDGSLGEVDLPLSDEEPSSKKRKV
modifications: Alexa-546 label, position not stated
[2]
  Kd: 27 nM
